Consider one molecule from patent publication US20240301049A1 (Ablynx, published 2024).

In one experiment the target is human TNF-α (human, UniProt P01375 77-233). In words: cell-based or functional assay.
A further experiment addresses cyno TNF-α (cynomolgus monkey, UniProt P79337 77-233). In words: cell-based or functional assay.
Experiment [1] has as its target T1, human membrane TNFα expressed on HEK293H cells (human, UniProt P01375 1-233).
T1 construct: whole, on cells; also called membrane expressed TNFα
In words: flow cytometry, HEK293H cells expressing human membrane TNFα, with 30 µM HSA, 24 h. The protocol: Briefly, cells were fixed with 4% paraformaldehyde and 0.1% glutaraldehyde in PBS (to increase detection of membrane bound TNFα). […] Cells were washed 3 times and subsequently incubated with an anti-VHH mAb (ABH00119) for 30 min at 4° C., washed again, and incubated for 30 min at 4° C. with a goat anti-mouse or anti-human PE labeled antibody. Samples were washed and resuspended in FACS Buffer (D-PBS with 10% FBS and 0.05% sodium azide supplemented with 5 nM TOPRO3). Cell suspensions were then analyzed on an iQuescreener. EC50 values were calculated using GraphPad Prism.
For orientation: In flow cytometry, cells or beads pass a laser one at a time.

The target in the next experiment is T2, human TNFβ (human, UniProt P01374 35-205).
T2 construct: the result sentence prints TNF; also called hTNFβ
T2 sequence (looked up): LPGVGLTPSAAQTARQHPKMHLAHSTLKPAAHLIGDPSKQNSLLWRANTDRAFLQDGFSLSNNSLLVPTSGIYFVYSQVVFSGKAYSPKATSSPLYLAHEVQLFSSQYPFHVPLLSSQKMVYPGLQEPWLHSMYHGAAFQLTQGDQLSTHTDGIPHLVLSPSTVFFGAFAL
In words: SPR (ProteOn XPR36), target immobilized.

The target of a further experiment is T3, human RANKL (human, UniProt O14788 140-317, limits assumed).
T3 construct: also called hRANKL
T3 sequence (looked up): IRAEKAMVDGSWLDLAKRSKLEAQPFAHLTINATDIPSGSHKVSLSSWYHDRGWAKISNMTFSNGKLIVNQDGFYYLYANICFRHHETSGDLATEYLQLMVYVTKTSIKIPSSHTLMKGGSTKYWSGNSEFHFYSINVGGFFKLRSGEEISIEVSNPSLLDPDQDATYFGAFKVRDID
In words: SPR (ProteOn XPR36), target immobilized.

Another experiment has as its target T4, human IL27 (human, UniProt Q8NEV9 29-243; Q14213 21-229).
T4 sequence (looked up) 1: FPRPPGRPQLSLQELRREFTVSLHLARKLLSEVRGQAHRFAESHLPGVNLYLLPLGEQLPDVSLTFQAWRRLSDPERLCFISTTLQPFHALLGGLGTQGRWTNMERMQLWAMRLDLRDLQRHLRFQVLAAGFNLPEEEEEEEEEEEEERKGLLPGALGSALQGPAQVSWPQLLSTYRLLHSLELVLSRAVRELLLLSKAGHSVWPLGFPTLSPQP
T4 sequence (looked up) 2: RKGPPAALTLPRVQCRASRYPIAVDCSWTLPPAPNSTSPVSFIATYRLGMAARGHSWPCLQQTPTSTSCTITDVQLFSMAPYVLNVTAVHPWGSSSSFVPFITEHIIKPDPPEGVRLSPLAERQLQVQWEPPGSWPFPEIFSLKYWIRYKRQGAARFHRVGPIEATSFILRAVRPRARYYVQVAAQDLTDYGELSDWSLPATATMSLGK
Put plainly: SPR (ProteOn XPR36), target immobilized.

A further experiment deals with human TRAIL (human, UniProt P50591 114-281, limits assumed). In words: SPR (ProteOn XPR36), target immobilized.
Sequence of human TRAIL (P50591 114-281 limits assumed): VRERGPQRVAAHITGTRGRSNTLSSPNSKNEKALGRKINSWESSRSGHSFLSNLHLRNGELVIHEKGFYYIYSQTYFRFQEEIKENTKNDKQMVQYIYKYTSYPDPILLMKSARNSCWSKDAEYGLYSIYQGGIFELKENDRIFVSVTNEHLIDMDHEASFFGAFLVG
A further experiment has as its target T5, human CNTF (human, UniProt P26441 2-200).
T5 construct: also called ciliary neurotrophic factor
T5 sequence (looked up): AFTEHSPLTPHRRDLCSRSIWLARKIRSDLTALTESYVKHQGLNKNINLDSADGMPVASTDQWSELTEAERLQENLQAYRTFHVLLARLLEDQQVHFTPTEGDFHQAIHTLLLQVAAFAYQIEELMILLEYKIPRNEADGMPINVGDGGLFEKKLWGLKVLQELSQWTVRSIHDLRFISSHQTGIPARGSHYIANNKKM
Put plainly: SPR (ProteOn XPR36), target immobilized.

The target in a further experiment is T6, human TL-1A (human, UniProt O95150 72-251).
T6 construct: also called hTL-1A
T6 sequence (looked up): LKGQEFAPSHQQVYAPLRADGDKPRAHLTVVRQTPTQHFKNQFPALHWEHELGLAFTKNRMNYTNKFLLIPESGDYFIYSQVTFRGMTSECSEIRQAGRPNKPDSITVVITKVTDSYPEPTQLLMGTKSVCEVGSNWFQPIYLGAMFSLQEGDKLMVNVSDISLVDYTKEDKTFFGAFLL
Put plainly: SPR (ProteOn XPR36), target immobilized.

The next experiment addresses T7, human IL11 (human, UniProt P20809 22-199).
T7 sequence (looked up): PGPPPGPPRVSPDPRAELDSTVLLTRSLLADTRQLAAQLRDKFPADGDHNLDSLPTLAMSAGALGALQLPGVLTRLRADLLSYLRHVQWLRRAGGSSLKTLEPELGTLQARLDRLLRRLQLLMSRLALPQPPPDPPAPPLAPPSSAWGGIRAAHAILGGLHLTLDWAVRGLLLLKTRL
In words: SPR (ProteOn XPR36), target immobilized.

The target in the next experiment is T8, human LIGHT (human, UniProt O43557 74-240, limits assumed).
T8 construct: also called hLIGHT
T8 sequence (O43557 74-240 limits assumed): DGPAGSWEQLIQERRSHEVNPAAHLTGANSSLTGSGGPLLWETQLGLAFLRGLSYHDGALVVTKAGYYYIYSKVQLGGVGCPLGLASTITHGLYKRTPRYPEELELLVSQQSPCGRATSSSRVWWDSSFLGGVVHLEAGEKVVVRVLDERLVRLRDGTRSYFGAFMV
In words: SPR (ProteOn XPR36), target immobilized.

The target in another experiment is T9, human oncostatin M (human, UniProt P13725 26-221, limits assumed).
T9 construct: also called OSM
T9 sequence (looked up): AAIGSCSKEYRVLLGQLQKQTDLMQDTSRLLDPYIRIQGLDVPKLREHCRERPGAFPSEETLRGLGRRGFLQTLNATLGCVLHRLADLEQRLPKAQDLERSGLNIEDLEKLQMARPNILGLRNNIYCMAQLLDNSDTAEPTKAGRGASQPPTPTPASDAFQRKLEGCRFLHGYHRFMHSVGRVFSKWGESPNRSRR
In words: SPR (ProteOn XPR36), target immobilized.

In the next experiment the target is T10, human FASL (human, UniProt P48023 134-281, limits assumed).
T10 construct: also called hFASL
T10 sequence (looked up): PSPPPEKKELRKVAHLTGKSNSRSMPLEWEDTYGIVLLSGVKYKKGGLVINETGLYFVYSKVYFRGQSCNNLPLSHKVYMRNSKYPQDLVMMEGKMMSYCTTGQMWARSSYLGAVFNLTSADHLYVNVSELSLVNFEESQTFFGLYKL
Put plainly: SPR (ProteOn XPR36), target immobilized.

Where “and” joins values, the source holds several entries; their conditions need not be identical. Identical values can stand only once.

Usually EC50 stands for the concentration needed to bring the measured effect to its halfway point. Lower therefore signals an effect from little substance.

T1 sequence (P01375 whole entry): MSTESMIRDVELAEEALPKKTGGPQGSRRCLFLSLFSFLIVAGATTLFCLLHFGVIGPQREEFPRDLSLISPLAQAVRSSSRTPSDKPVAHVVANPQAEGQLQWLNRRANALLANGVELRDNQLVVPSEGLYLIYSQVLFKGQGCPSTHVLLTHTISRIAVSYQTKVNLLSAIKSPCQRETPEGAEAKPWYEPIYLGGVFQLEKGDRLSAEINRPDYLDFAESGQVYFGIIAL
Sequence of cyno TNF-α (P79337 77-233 limits assumed): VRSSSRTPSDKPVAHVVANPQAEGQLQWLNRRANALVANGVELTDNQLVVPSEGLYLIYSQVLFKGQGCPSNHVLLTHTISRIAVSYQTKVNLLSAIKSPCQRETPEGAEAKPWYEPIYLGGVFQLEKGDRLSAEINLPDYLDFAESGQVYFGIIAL
Sequence of human TNF-α (P01375 77-233 limits assumed): as the sequence (P79337 77-233 limits assumed) above, with V37L, T44R, N72T, L138R counted along it

B1: F027201062 (bispecific antibody)
chain: DVQLVESGGGVVQPGGSLRLSCAASGRTFSNYAMAWFRQAPGKEREFVAVISYAGGRTYYADSVKGRFTISRDNAKNTVYLQMNSLRPEDTALYYCAAVDSPLIATHPRGYDYWGQGTLVTVSSGGGGSGGGSEVQLVESGGGVVQPGGSLRLSCAASGFTFRSFGMSWVRQAPGKGPEWVSSISGSGSDTLYADSVKGRFTISRDNSKNTLYLQMNSLRPEDTALYYCTIGGSLSRSSQGTLVTVSSGGGGSGGGSEVQLVESGGGVVQPGGSLRLSCAASGFTLAYYAIGWFRQAPGKEREGVSCISGSVGTTYYADSVKGRFTISRDNAKNTVYLQMNSLRPEDTALYYCVRSSWFDCGVQGRDLGNEYDYRGQGTLVTVSSGGGGSGGGSEVQLVESGGGVVQPGGSLRLSCTASGFTFSTADMGWFRQAPGKGREFVARISGIDGTTYYDEPVKGRFTISRDNSKNTVYLQMNSLRPEDTALYYCRSPRYADQWSAYDYWGQGTLVKVSSA
notes: anti-IL-6 (17C04, 6B12), anti-HSA (ALB23002), anti-TNF-α (6C11), C-terminal alanine; produced in Pichia pastoris; also called ISVD construct F027201062; Nanobody F027201062
For B1, the “IC50, HEK293_NFκB-NLucP reporter assay” value is 0.0757 nM and 0.0257 nM and 0.0586 nM with human TNF-α; 0.16 nM and 0.0837 nM and 0.23 nM in the experiment with cyno TNF-α. In addition, the concentration giving a half-maximal response (EC50) in experiment [1] was 0.31 nM and 0.29 nM and 0.36 nM. Also, the binding result in the experiment with human TNFβ, with human RANKL, in the experiment with human IL27, in the experiment with human TRAIL, with human CNTF and with human TL-1A was “no binding (tested: 300 nM)” in each case. Moreover, the binding result in the experiment with human IL11, with human LIGHT, in the experiment with human oncostatin M and with human FASL was “no binding (tested: 300 nM)” each time.
